Consider four molecules from patent US20210032299A1 (Eli Lilly, published 2021).

In test [1] the target is T1, human glucose-dependent insulinotropic polypeptide (GIP) receptor (human, UniProt P48546 22-466).
T1 construct: whole, on cells; Assayed as crude membranes of stably transfected CHO cells; also called hGIPR; human GIP receptor
T1 sequence (looked up): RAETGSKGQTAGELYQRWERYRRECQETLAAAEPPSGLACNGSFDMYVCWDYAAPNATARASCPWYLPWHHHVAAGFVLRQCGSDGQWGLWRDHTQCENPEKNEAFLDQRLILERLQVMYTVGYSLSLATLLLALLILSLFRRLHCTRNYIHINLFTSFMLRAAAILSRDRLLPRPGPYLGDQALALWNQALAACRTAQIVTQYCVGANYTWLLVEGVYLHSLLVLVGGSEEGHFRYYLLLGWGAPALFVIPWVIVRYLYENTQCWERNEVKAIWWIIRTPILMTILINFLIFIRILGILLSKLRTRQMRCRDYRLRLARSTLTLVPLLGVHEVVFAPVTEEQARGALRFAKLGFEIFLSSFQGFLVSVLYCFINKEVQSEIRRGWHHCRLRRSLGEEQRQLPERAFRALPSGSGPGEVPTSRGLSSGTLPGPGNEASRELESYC
Kind of test: SPA, displacement of [125I]-GIP from hGIPR membranes, 0.1% bacitracin. A general note: In a radioligand displacement assay an active substance lowers the binding of a labelled ligand.

A further test deals with T2, human glucagon receptor (human, UniProt P47871 26-477).
T2 construct: whole, on cells; Assayed as crude membranes of stably transfected HEK293 cells; also called hGcgR; GcgR
The test is described as follows: SPA, displacement of [125I]-Gcg from hGcgR membranes, 0.1% bacitracin. The procedure, abridged: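 Binding buffer: 25 mM HEPES pH 7.4, 2.5 mM CaCl₂, 1 mM MgCl₂, 0.003% Tween-20, protease inhibitors without EDTA. Counted by scintillation after 12 h incubation/settling at room temperature. Four-parameter nonlinear fit; Kᵢ given as geometric mean ± SEM of independent replicates run on different days.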

A further test concerns the target T3, human GLP-1 receptor (human, UniProt P43220 24-463).
T3 construct: whole, on cells; Assayed as crude membranes of stably transfected HEK293 cells; also called hGLP1R; hGLP-1R
Kind of test: SPA, displacement of [125I]-GLP-1 from hGLP-1R membranes, 0.1% bacitracin. The procedure, abridged: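 Binding buffer: 25 mM HEPES pH 7.4, 2.5 mM CaCl₂, 1 mM MgCl₂, 0.1% bacitracin, 0.003% Tween-20, protease inhibitors without EDTA. Four-parameter nonlinear regression; Kᵢ given as geometric mean ± SEM, n = independent replicates run on different days.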

Starred links: 1 amine or outer side, 2 acyl side, 3 side chain; linkers in the order of their positions; H or OH if unused. Non-standard residues stand in square brackets, D forms with d. Groups on a side chain read outwards from the residue. No end group written: not given here. *: point of attachment. C20 diacid = O=C(O)CCCCCCCCCCCCCCCCCCC(=O)*; γGlu = O=C(O)[C@H](CCC(=O)[*:2])N[*:1]; 4Pal = N[C@@H](Cc1ccncc1)C(=O)O; αMeL = CC(C)C[C@](C)(N)C(=O)O; AEEA = NCCOCCOCC(=O)O; Aib = CC(C)(N)C(=O)O

T2 sequence (P47871 26-477): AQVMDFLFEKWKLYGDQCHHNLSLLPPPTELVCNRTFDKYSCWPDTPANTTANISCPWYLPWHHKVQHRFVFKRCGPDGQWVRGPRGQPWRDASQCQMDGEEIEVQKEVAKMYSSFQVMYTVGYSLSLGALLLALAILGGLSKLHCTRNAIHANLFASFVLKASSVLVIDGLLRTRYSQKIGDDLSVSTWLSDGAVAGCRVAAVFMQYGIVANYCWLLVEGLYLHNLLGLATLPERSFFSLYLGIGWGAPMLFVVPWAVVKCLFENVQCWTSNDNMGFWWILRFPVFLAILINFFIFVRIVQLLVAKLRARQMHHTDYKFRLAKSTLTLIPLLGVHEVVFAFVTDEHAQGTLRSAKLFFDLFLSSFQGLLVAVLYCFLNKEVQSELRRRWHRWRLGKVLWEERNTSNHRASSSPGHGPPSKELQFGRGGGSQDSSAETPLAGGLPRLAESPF

B1: Example 59 (peptide)
peptide: Y[Aib]EGTFISDYSI[αMeL]LDKK([AEEA-AEEA-γGlu-C20 diacid])HQ[Aib]EFVE[4Pal]LLAAGPSSGAPPPS-NH2
modifications: N-terminus assumed
SMILES: CC[C@H](C)[C@H](NC(=O)[C@H](Cc1ccccc1)NC(=O)[C@@H](NC(=O)CNC(=O)[C@H](CCC(=O)O)NC(=O)C(C)(C)NC(=O)[C@@H](N)Cc1ccc(O)cc1)[C@@H](C)O)C(=O)N[C@@H](CO)C(=O)N[C@@H](CC(=O)O)C(=O)N[C@@H](Cc1ccc(O)cc1)C(=O)N[C@@H](CO)C(=O)N[C@H](C(=O)N[C@@](C)(CC(C)C)C(=O)N[C@@H](CC(C)C)C(=O)N[C@@H](CC(=O)O)C(=O)N[C@@H](CCCCN)C(=O)N[C@@H](CCCCNC(=O)COCCOCCNC(=O)COCCOCCNC(=O)CC[C@H](NC(=O)CCCCCCCCCCCCCCCCCCC(=O)O)C(=O)O)C(=O)N[C@@H](Cc1c[nH]cn1)C(=O)N[C@@H](CCC(N)=O)C(=O)NC(C)(C)C(=O)N[C@@H](CCC(=O)O)C(=O)N[C@@H](Cc1ccccc1)C(=O)N[C@H](C(=O)N[C@@H](CCC(=O)O)C(=O)N[C@@H](Cc1ccncc1)C(=O)N[C@@H](CC(C)C)C(=O)N[C@@H](CC(C)C)C(=O)N[C@@H](C)C(=O)N[C@@H](C)C(=O)NCC(=O)N1CCC[C@H]1C(=O)N[C@@H](CO)C(=O)N[C@@H](CO)C(=O)NCC(=O)N[C@@H](C)C(=O)N1CCC[C@H]1C(=O)N1CCC[C@H]1C(=O)N1CCC[C@H]1C(=O)N[C@@H](CO)C(N)=O)C(C)C)[C@@H](C)CC
A word on the Ki: it is the equilibrium dissociation constant of an inhibitor or competing ligand from its target. On to B1, for which the Ki worked out at 0.0148 nM in test [1], 230 nM in the test with human glucagon receptor and 109 nM with human GLP-1 receptor.

B2: Example 79 (peptide)
peptide: Y[Aib]EGTFISDYSI[αMeL]LDKK([AEEA-AEEA-γGlu-C20 diacid])HQ[Aib]DFVE[4Pal]LLAQGPSSGAPPPS-NH2
modifications: N-terminus assumed
SMILES: CC[C@H](C)[C@H](NC(=O)[C@H](Cc1ccccc1)NC(=O)[C@@H](NC(=O)CNC(=O)[C@H](CCC(=O)O)NC(=O)C(C)(C)NC(=O)[C@@H](N)Cc1ccc(O)cc1)[C@@H](C)O)C(=O)N[C@@H](CO)C(=O)N[C@@H](CC(=O)O)C(=O)N[C@@H](Cc1ccc(O)cc1)C(=O)N[C@@H](CO)C(=O)N[C@H](C(=O)N[C@@](C)(CC(C)C)C(=O)N[C@@H](CC(C)C)C(=O)N[C@@H](CC(=O)O)C(=O)N[C@@H](CCCCN)C(=O)N[C@@H](CCCCNC(=O)COCCOCCNC(=O)COCCOCCNC(=O)CC[C@H](NC(=O)CCCCCCCCCCCCCCCCCCC(=O)O)C(=O)O)C(=O)N[C@@H](Cc1c[nH]cn1)C(=O)N[C@@H](CCC(N)=O)C(=O)NC(C)(C)C(=O)N[C@@H](CC(=O)O)C(=O)N[C@@H](Cc1ccccc1)C(=O)N[C@H](C(=O)N[C@@H](CCC(=O)O)C(=O)N[C@@H](Cc1ccncc1)C(=O)N[C@@H](CC(C)C)C(=O)N[C@@H](CC(C)C)C(=O)N[C@@H](C)C(=O)N[C@@H](CCC(N)=O)C(=O)NCC(=O)N1CCC[C@H]1C(=O)N[C@@H](CO)C(=O)N[C@@H](CO)C(=O)NCC(=O)N[C@@H](C)C(=O)N1CCC[C@H]1C(=O)N1CCC[C@H]1C(=O)N1CCC[C@H]1C(=O)N[C@@H](CO)C(N)=O)C(C)C)[C@@H](C)CC
With B2, the Ki in test [1] was 0.0229 nM; in the test with human glucagon receptor, 888 nM; with human GLP-1 receptor it was 486 nM.

B3: Example 70 (peptide)
peptide: Y[Aib]EGTFISDYSI[αMeL]LDKK([AEEA-AEEA-γGlu-C20 diacid])HQ[Aib]DFVE[4Pal]LLATGPSSGAPPPS-NH2
modifications: N-terminus assumed
SMILES: CC[C@H](C)[C@H](NC(=O)[C@H](Cc1ccccc1)NC(=O)[C@@H](NC(=O)CNC(=O)[C@H](CCC(=O)O)NC(=O)C(C)(C)NC(=O)[C@@H](N)Cc1ccc(O)cc1)[C@@H](C)O)C(=O)N[C@@H](CO)C(=O)N[C@@H](CC(=O)O)C(=O)N[C@@H](Cc1ccc(O)cc1)C(=O)N[C@@H](CO)C(=O)N[C@H](C(=O)N[C@@](C)(CC(C)C)C(=O)N[C@@H](CC(C)C)C(=O)N[C@@H](CC(=O)O)C(=O)N[C@@H](CCCCN)C(=O)N[C@@H](CCCCNC(=O)COCCOCCNC(=O)COCCOCCNC(=O)CC[C@H](NC(=O)CCCCCCCCCCCCCCCCCCC(=O)O)C(=O)O)C(=O)N[C@@H](Cc1c[nH]cn1)C(=O)N[C@@H](CCC(N)=O)C(=O)NC(C)(C)C(=O)N[C@@H](CC(=O)O)C(=O)N[C@@H](Cc1ccccc1)C(=O)N[C@H](C(=O)N[C@@H](CCC(=O)O)C(=O)N[C@@H](Cc1ccncc1)C(=O)N[C@@H](CC(C)C)C(=O)N[C@@H](CC(C)C)C(=O)N[C@@H](C)C(=O)N[C@H](C(=O)NCC(=O)N1CCC[C@H]1C(=O)N[C@@H](CO)C(=O)N[C@@H](CO)C(=O)NCC(=O)N[C@@H](C)C(=O)N1CCC[C@H]1C(=O)N1CCC[C@H]1C(=O)N1CCC[C@H]1C(=O)N[C@@H](CO)C(N)=O)[C@@H](C)O)C(C)C)[C@@H](C)CC
Consider B3, for which the Ki amounted to 0.0421 nM in test [1], 857 nM in the test with human glucagon receptor and 570 nM in the test with human GLP-1 receptor.

B4: Example 78 (peptide)
peptide: Y[Aib]EGTFISDYSI[αMeL]LDKK([AEEA-AEEA-γGlu-C20 diacid])HQ[Aib]DFVE[4Pal]LLAAGPSSGAPPPS-NH2
modifications: N-terminus assumed
SMILES: CC[C@H](C)[C@H](NC(=O)[C@H](Cc1ccccc1)NC(=O)[C@@H](NC(=O)CNC(=O)[C@H](CCC(=O)O)NC(=O)C(C)(C)NC(=O)[C@@H](N)Cc1ccc(O)cc1)[C@@H](C)O)C(=O)N[C@@H](CO)C(=O)N[C@@H](CC(=O)O)C(=O)N[C@@H](Cc1ccc(O)cc1)C(=O)N[C@@H](CO)C(=O)N[C@H](C(=O)N[C@@](C)(CC(C)C)C(=O)N[C@@H](CC(C)C)C(=O)N[C@@H](CC(=O)O)C(=O)N[C@@H](CCCCN)C(=O)N[C@@H](CCCCNC(=O)COCCOCCNC(=O)COCCOCCNC(=O)CC[C@H](NC(=O)CCCCCCCCCCCCCCCCCCC(=O)O)C(=O)O)C(=O)N[C@@H](Cc1c[nH]cn1)C(=O)N[C@@H](CCC(N)=O)C(=O)NC(C)(C)C(=O)N[C@@H](CC(=O)O)C(=O)N[C@@H](Cc1ccccc1)C(=O)N[C@H](C(=O)N[C@@H](CCC(=O)O)C(=O)N[C@@H](Cc1ccncc1)C(=O)N[C@@H](CC(C)C)C(=O)N[C@@H](CC(C)C)C(=O)N[C@@H](C)C(=O)N[C@@H](C)C(=O)NCC(=O)N1CCC[C@H]1C(=O)N[C@@H](CO)C(=O)N[C@@H](CO)C(=O)NCC(=O)N[C@@H](C)C(=O)N1CCC[C@H]1C(=O)N1CCC[C@H]1C(=O)N1CCC[C@H]1C(=O)N[C@@H](CO)C(N)=O)C(C)C)[C@@H](C)CC
B4: the values for the Ki (in test [1]; in the test with human glucagon receptor; in the test with human GLP-1 receptor) were 0.0236 nM, 505 nM and 394 nM, respectively.
